Reference: patent US20200354457A1

Legend:
[1] = biological target: cynomolgus LAG3 on transiently transfected HEK293F cells (cynomolgus); assay: flow cytometry on HEK293F cells transfected with cyno LAG3, 10 µg/ml
[2] = biological target: Lag3 on cynomolgus PBMC/T cells (cynomolgus); assay: flow cytometry, non-activated cynomolgus PBMC, 10 µg/ml
[3] = biological target: Lag3 on cynomolgus PBMC/T cells (cynomolgus); assay: flow cytometry, CD3/CD28-activated cynomolgus PBMC, 10 µg/ml
[4] = biological target: Lag3 on Lag3+ NFAT Jurkat effector cells (Promega #CS194801); assay: cell-based or functional assay

Chain of control antibody MDX25F7 (VH): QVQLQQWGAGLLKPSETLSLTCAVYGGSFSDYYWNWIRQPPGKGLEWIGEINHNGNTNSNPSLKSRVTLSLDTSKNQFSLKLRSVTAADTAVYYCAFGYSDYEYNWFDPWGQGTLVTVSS
Chain of control antibody MDX25F7 (VL): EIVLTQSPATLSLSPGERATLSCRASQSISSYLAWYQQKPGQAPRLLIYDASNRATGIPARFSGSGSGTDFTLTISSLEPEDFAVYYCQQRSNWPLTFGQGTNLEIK

Substance: control antibody MDX25F7
- LAG3 positive cells (%) [1]: 48.2%
- Signal intensity (Geo Mean) [1]: 1560 Geo Mean
- Percentage of Lag3 positive cells [2]: 11.3%
- Percentage of Lag3 positive cells [3]: 22.1%
- EC50 of restoration of the NFAT luciferase signal (NFAT Lag3 reporter assay: Lag3+ Jurkat, Raji cells, SED) [4]: 1.29 µg/mL
- IC50 for near-complete reduction of luciferase activity (modified NFAT Lag3 reporter assay, Lag3+ Jurkat cells alone) [4]: 0.033 µg/mL

Substance: DP47 (human isotype control) (antibody)
- Percentage of Lag3 positive cells [2]: 2.5%
- Percentage of Lag3 positive cells [3]: 9.19%

Substance: BMS-986016 (antibody)
- Percentage of Lag3 positive cells [2]: 10.1%
- Percentage of Lag3 positive cells [3]: 18.6%
